pKi: −log10 of the molar value. Like-named read-outs stand apart in the source and are kept apart here.
Columns and labels:
Test in all cases: enzyme inhibition kinetics
[1] = target: human LSD1-CoREST complex (LSD1 residues 171-836 with CoREST residues 308-440) (human) (UniProt O60341)
[2] = target: human LSD1-CoREST complex (LSD1 residues 171-836 with CoREST residues 308-440) (human) (UniProt O60341); remark: listed apart in the source
[3] = target: recombinant mouse LSD2 (mouse) (UniProt Q8CIG3)
[4] = target: human LSD1-CoREST complex (LSD1 residues 171-836 with CoREST residues 308-440) (human) (UniProt O60341); remark: listed apart in the source

pKi [1]: 3.66
pKi [2]: 3.68
pKi [3]: 5.65
pKi [4]: 6.70
Substance: 20-residue peptide corresponding to the N-terminal residues of human SNAIL1

Reference: paper PMC3059804
